From paper PMC9654539, “Alkaline Stress Causes Changes in Polyamine Biosynthesis in Thermus thermophilus” (International Journal of Molecular Sciences, 2022) come the findings set out here.

Substrate in the series: N=C(N)NCCCCN
The series can be described thus: purified protein. Particulars: pH 10.0, 75 °C, 50 mM Tris-HCl, 10 μM MnCl2, 0.005–1 mM agmatine. It is filed as biochemical, Thermus thermophilus.

B1: TtSpeB (aminopropylagmatine ureohydrolase) (Thermus thermophilus HB8) (protein)
chain: MRLVFGEKDTPYEEARVVVLPVPYDLSLSFLPGARRGPEAILLASRELEPFLLELGAAPEEVGIHAAEPVPWVAGMAEESHRLIREEALRHLRAGKWVVALGGDHSVTHPLVQAHREALGDFSLLHVDAHADLYPEWQGSVYSHASPFYRLLTEGFPLVQVGIRAMDRDSLRLARKKGVALFPAHRIHREGLPLDEILRALGKRVYISLDFDALDPSLMPSVGTPLPGGLSYRQVVDLLEAVFREKEVVGMDFVELSPNGQFHAEMTAAQLVYHAIGLKGLQAGWLSREVDHI
notes: gene amplified from HB8 genomic DNA, pET21b (pET21speBHis, NdeI/HindIII), His-tagged, tag not reported cut, E. coli BL21(DE3), heat step 70 °C, Ni-NTA
With B1, the Michaelis constant (Km) (as a rule, the concentration of substrate that gives half-maximal velocity) was 171 µM.
